Molecular target: SARS-CoV-2 S2P spike (SARS-CoV-2, ancestral spike (P0DTC2 …, stabilised))
Experiment: cryo-EM structure

B1: antigen-binding fragment (Fab) of antibody 5-7, expressed as Fab (Fab, V domains shown)
VH: QVQLVQSGAEVKKPGASVKVSCKASGYTFTSYYMHWVRQAPGQGLEWMGVINPSGGSTSYAEKFRGRVTMTRDTSTSTVYMELSSLRSEDTAVYYCARDREPHSDSSGYWDSLKYYYYYALDVWGQGTTVTVSS
VL: AIQLTQSPSSLSASVGDRVTITCRASQGISSYLAWYQQKPGKAPELLIYAASTLQSGVPSRFSGSGSGTDFTLTISSLQPEDFATYYCQQLNTYPFTFGPGTKVDIK
stoichiometry N: 3 Fabs per trimer

Source: article PMC8519878 (Cell Reports, 2021)
